Laboratory results reported in article PMC5740878.

Biological target: UHRF1-mCherry (UniProt Q96T88)
Assay: FRET or BRET; FLIM-FRET in fixed HeLa cells 24 h after co-transfection of TIP60-eGFP WT/mutants (donor) and UHRF1-mCherry (acceptor) 1:1; two-photon excitation at 930 nm; E = 1-(τDA/τD); one-component and two-component analysis of decays

Sequence of TIP60∆CRD-eGFP (Q92993 whole entry): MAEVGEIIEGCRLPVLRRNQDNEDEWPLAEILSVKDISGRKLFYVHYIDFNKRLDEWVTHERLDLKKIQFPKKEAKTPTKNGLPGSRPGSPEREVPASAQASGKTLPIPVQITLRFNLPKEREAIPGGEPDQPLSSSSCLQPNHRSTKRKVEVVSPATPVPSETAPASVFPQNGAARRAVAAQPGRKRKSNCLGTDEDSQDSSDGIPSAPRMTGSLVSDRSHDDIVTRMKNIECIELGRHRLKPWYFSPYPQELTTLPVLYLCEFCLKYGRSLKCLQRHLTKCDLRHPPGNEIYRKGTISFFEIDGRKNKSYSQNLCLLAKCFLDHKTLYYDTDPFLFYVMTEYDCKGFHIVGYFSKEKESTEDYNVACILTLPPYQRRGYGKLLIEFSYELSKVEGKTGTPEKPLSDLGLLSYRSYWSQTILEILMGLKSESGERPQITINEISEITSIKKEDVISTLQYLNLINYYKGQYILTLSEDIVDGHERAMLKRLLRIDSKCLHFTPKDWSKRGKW
Sequence of UHRF1-mCherry (Q96T88 whole entry): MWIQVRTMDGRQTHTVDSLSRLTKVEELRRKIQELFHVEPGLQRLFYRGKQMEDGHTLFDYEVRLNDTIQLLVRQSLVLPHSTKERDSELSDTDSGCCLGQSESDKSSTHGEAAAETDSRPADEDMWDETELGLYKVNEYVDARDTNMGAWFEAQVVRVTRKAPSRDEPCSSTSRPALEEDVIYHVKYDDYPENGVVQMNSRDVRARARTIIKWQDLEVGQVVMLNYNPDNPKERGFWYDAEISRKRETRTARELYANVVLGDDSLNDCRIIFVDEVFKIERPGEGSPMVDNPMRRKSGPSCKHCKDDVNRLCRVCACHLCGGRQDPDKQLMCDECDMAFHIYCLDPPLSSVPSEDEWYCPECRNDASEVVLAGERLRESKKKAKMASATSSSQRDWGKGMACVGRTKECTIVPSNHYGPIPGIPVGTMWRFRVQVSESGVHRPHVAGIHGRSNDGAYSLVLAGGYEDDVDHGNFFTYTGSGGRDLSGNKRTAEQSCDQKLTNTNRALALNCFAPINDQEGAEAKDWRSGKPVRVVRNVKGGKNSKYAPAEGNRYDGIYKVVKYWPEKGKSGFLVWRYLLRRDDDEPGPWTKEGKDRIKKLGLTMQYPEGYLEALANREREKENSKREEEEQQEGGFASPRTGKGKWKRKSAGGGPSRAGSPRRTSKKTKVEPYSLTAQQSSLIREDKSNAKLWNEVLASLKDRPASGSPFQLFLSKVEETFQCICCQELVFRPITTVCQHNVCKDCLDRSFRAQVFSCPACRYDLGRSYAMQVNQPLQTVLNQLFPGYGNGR

Work on “TIP60∆CRD-eGFP (from UniProt Q92993 1-513) (natural protein)” yielded an average FRET of 12.2%, an average FRET of the short lifetime component, two-component model of 43% and a mean short lifetime component (τ1), two-component model of 1.4 ns. It also gave a population (α1) of the interacting short lifetime component of 19%.
